Laboratory results as given in patent publication US20190016816A1 (APTEVO RESEARCH AND DEVELOPMENT, published 2019).

T1: cynomolgus 5T4 on cells (cynomolgus macaque, UniProt Q4R8Y9 35-420)
T1 construct: whole, on cells; also called CHO-K1/cynomolgus 5T4 transfectants
T1 sequence (looked up): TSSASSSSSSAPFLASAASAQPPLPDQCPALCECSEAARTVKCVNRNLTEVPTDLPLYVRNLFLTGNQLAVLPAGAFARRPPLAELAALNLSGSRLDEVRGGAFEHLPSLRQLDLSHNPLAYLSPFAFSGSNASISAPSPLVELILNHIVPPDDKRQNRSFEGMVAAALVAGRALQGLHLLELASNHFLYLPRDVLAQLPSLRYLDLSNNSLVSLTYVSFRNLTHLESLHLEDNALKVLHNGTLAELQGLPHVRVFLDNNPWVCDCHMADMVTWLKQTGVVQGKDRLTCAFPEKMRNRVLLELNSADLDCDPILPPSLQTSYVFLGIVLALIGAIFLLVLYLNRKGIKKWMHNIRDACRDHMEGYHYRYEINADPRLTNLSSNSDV

T2: human 5T4 on cells (human, UniProt Q13641 32-420)
T2 construct: also called TPBG; hu5T4
T2 sequence: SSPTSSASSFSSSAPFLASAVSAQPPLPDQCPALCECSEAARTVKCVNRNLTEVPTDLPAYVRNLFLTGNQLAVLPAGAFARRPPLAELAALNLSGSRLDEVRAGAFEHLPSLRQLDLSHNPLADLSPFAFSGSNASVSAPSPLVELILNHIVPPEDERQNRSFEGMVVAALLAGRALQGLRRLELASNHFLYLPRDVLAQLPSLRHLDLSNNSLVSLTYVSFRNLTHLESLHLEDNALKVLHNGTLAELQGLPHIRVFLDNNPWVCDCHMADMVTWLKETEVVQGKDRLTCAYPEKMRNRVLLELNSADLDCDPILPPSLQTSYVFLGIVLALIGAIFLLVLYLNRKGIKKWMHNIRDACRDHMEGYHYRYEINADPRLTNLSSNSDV


Tests used:
cynomolgus 5T4 on cells = molecular target: T1, cynomolgus 5T4 on cells; test: flow cytometry, CHO-K1/cynomolgus 5T4 transfectants, labelled anti-human IgG secondary, MFI (mean)
Procedure: Binding studies were performed by standard flow cytometry-based staining procedures two cell lines expressing 5T4:CHO-K1 cells (obtained from Alligator) transduced with human or cynomolgus macaque 5T4 and SKOV-3 human ovarian adenocarcinoma cells which express (human) 5T4. All labeling and washes were performed in U-bottom 96-well plates in saline buffer with 0.1% BSA and 2 mM EDTA. Cell were plated at approximately 100,000 cells per well and incubated with a range of 100 nM to 0.05 nM concentrations of test molecules in […], for 30 minutes on ice. Cells were washed three times then incubated for another 30 min on ice with fluorescently-labeled secondary polyclonal antibody, F(ab′)² goat anti-human IgG (Jackson ImmunoResearch Laboratories). The cells were then washed twice and the samples acquired in a BD LSRII or a Symphony A3 flow cytometer. The sample files were analyzed using FlowJo software; the mean fluorescence intensity (MFI-mean) or median fluorescence intensity (MFI-median) of the live population of cells in each well was calculated after gating on live cells (forward vs side scatter). Nonlinear regression analysis to determine EC₅₀ values was performed in GraphPad Prism 6® graphing and statistics software.

human CD137 on cells [1] = molecular target: T3, human CD137 on cells (human, UniProt Q07011 24-255); test: cell-based or functional assay
human 5T4 on cells = molecular target: T2, human 5T4 on cells; test: flow cytometry, murine CT26 cells expressing human 5T4, labelled anti-human IgG secondary, MFI (mean)
human CD137 on cells [2] = molecular target: T3, human CD137 on cells; test: flow cytometry, CHO-K1/human CD137 cells, PE anti-human IgG Fc secondary, MFI (mean)
Procedure: Binding studies on CHO-K1 cells lines expressing CD137 were performed by standard flow cytometry-based staining procedures. CHO-K1 cells (generated by Alligator) were transfected with human or cynomolgus macaque CD137. A typical experiment would label approximately 100,000 cells per well, in 96-well plates, with a range of 100 nM to 0.05 nM binding molecule in 50 μL of saline buffer with 2% BSA and 2 mM EDTA, for 30 min on ice, followed by washes and incubation with PE-labeled secondary antibody, goat anti-human IgG Fcγ ([…]), for 20 minutes on ice. Signal from bound molecules was detected using a LSR-II™ or a Symphony A3 flow cytometer (BD Biosciences) and analyzed by FlowJo flow cytometry analysis software. […] Nonlinear regression analysis to determine EC₅₀ values was performed in GraphPad Prism 6® graphing and statistics software.

T3 sequence (Q07011 24-255 limits assumed): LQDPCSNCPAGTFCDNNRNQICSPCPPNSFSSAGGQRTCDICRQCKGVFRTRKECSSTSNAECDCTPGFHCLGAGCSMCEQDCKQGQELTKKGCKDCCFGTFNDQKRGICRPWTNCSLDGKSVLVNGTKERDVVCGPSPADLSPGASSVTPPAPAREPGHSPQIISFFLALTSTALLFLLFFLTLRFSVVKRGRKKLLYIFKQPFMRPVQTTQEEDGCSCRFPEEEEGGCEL

Binder | EC50 (cynomolgus 5T4 on cells) | Maximum MFI (cynomolgus 5T4 on cells) | CD137 reporter assay with HCC1143 cells, EC50 against ALG.APV-004 (human CD137 on cells [1]) | CD137 reporter assay with HCC1143 cells, EC50 against ALG.APV-006 and ALG.APV-004 (human CD137 on cells [1]) | EC50 (human 5T4 on cells) | Maximum MFI (human 5T4 on cells) | EC50 (human CD137 on cells [2]) | Maximum MFI (human CD137 on cells [2])
ALG.APV-187 (bispecific antibody, Optimized ADAPTIR scFv-Fc-scFv homodimer with stabilizing disulfide in the 1210 scFv) EVQLLESGGGLVQPGGSLRLSCAASGFTFSHGSMYWVRQAPGKGLEWVSSISSGSGSTYYADSVKGRFTISHDNSKNTLYLQMNSLRAEDTAVYYCARSSYYGSYYSIDYWGQGTLVTVSSGGGGSGGGGSGGGGSGGGGSDIQMTQSPSSLSASVGDRVTITCRASQSISSYLNWYQQKPGKAPKLLIYAASSLQSGVPSRFSGSGSGTDFTLTISSLQPEDFATYYCQQYYDNLPTFGQGTKLEIKSSEPKSSDKTHTCPPCPAPEAAGAPSVFLFPPKPKDTLMISRTPEVTCVVVDVSHEDPEVKFNWYVDGVEVHNAKTKPREEQYNSTYRVVSVLTVLHQDWLNGKEYKCAVSNKALPAPIEKTISKAKGQPREPQVYTLPPSRDELTKNQVSLTCLVKGFYPSDIAVEWESNGQPENNYKTTPPVLDSDGSFFLYSKLTVDKSRWQQGNVFSCSVMHEALHNHYTQKSLSLSPGSGGGGSGGGGSGGGGSPSEVQLLESGGGLVQPGGSLRLSCAASGFTFSSYAMSWVRQAPGKCLEWVSAISGSGGSTYYADSVKGRFTISRDNSKNTLYLQMNSLRAEDTAVYYCARYYGGYYSAWMDYWGQGTLVTVSSGGGGSGGGGSGGGGSGGGGSDIQMTQSPSSLSASVGDRVTITCRASQSISSFLNWYQQKPGKAPKLLIYAASSLQSGVPSRFSGSGSGTDFTLTISSLQPEDSATYYCQQTYGYLHTFGCGTKLEIKR | 8.5 nM | 26000 | 10 fold lower EC50 | ≤ 6 fold lower EC50 | 2.2 nM | 1730 | 0.41 nM | 8720
ALG.APV-210 (bispecific antibody, Optimized ADAPTIR scFv-Fc-scFv homodimer with stabilizing disulfide in the 1210 scFv; also called 5T4-CD137 bispecific antibody) EVQLLESGGGLVQPGGSLRLSCAASGFTFSHGSMYWVRQAPGKGLEWVSSISSGSGSTYYADSVKGRFTISHDNSKNTLYLQMNSLRAEDTAVYYCARSSYYGSYYSIDYWGQGTLVTVSSGGGGSGGGGSGGGGSGGGGSDIQMTQSPSSLSASVGDRVTITCRASQSISSYLNWYQQKPGKAPKLLIYAASSLQSGVPSRFSGSGSGTDFTLTISSLQPEDFATYYCQQYYDNLPTFGQGTKLEIKEPKSSDKTHTCPPCPAPEAAGAPSVFLFPPKPKDTLMISRTPEVTCVVVDVSHEDPEVKFNWYVDGVEVHNAKTKPREEQYNSTYRVVSVLTVLHQDWLNGKEYKCAVSNKALPAPIEKTISKAKGQPREPQVYTLPPSRDELTKNQVSLTCLVKGFYPSDIAVEWESNGQPENNYKTTPPVLDSDGSFFLYSKLTVDKSRWQQGNVFSCSVMHEALHNHYTQKSLSLSPGSGGGGSGGGGSGGGGSPSEVQLLESGGGLVQPGGSLRLSCAASGFTFSSYAMSWVRQAPGKCLEWVSAISGSGGSTYYADSVKGRFTISRDNSKNTLYLQMNSLRAEDTAVYYCARYYGGYYSAWMDYWGQGTLVTVSSGGGGSGGGGSGGGGSGGGGSDIQMTQSPSSLSASVGDRVTITCRASQSISSFLNWYQQKPGKAPKLLIYAASSLQSGVPSRFSGSGSGTDFTLTISSLQPEDSATYYCQQTYGYLHTFGCGTKLEIKR | 7.2 nM | 23800 | 10 fold lower EC50 | – | 2.7 nM | 1730 | 0.56 nM | 8970
